Reference: patent US20210317499A1

Molecular target: His-tagged FcγRIIIa recombinant protein (UniProt P08637)
Assay: SPR (Biacore X100); His-tagged FcγRIIIa captured on anti-His antibody CM5 chip, antibody as analyte; 1:1 Langmuir fit

UniProt P08637, sequence (P08637 17-208 limits assumed): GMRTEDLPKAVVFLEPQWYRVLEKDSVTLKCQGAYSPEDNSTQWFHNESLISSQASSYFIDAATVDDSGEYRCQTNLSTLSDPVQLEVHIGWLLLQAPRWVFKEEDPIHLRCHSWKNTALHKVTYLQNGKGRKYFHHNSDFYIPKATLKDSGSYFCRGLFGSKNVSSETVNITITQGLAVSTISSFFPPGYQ

Kd: 39.9 nM | koff: 0.0069 s⁻¹ | kon: 173000 M⁻¹ s⁻¹
Substance: GAZYVA (obinutuzumab), commercial afucosylated anti-CD20 antibody
